Values belong to the binder of their own block, whether it stands above or below them.
How the values were obtained:
[1] = target: insulin B-chain (bovine pancreas insulin reduced with DTT) (bovine, UniProt P01317 25-54); test: cell-based or functional assay
[2] = target: the molecule itself; test: SEC; size-exclusion HPLC, Phenomenex BioSep SEC S4000 column; mobile phase 50 mM sodium phosphate buffer, pH 7.2; 10 µL of a 10 mg/mL sample, 0.5 mL/min; calibrated with mass standards; self-association into oligomers

Chain of insulin B-chain (bovine pancreas insulin reduced with DTT) (P01317 25-54): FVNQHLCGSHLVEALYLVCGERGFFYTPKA

decrease in chaperone assay: percentage protection against DTT-induced precipitation of the insulin B-chain (light scattering at 340 nm, 37°C, 1.0:0.14 molar ratio of insulin:αB-crystallin, after 90 …) [1]: 68%
B1: I159A/I161A αB-crystallin (natural protein, human, UniProt P02511 1-175, looked up)
chain: MDIAIHHPWIRRPFFPFHSPSRLFDQFFGEHLLESDLFPTSTSLSPFYLRPPSFLRAPSWFDTGLSEMRLEKDRFSVNLDVKHFSPEELKVKVLGDVIEVHGKHEERQDEHGFISREFHRKYRIPADVDPLTITSSLSSDGVLTVNGPRKQVSGPERTAPATREEKPAVTAAPKK
notes: αB-crystallin, human, SwissProt P02511, with I159A and I161A (I-X-I motif); ESI-MS mass 20074.4 Da; The measured mass fits the whole untagged protein with both changes; also called I159A/I161A mutant; source: dialyzed against 50 mM phosphate buffer
binding result [2]: binds

B2: E164A/E165A αB-crystallin (natural protein, human, UniProt P02511 1-175, looked up)
chain: MDIAIHHPWIRRPFFPFHSPSRLFDQFFGEHLLESDLFPTSTSLSPFYLRPPSFLRAPSWFDTGLSEMRLEKDRFSVNLDVKHFSPEELKVKVLGDVIEVHGKHEERQDEHGFISREFHRKYRIPADVDPLTITSSLSSDGVLTVNGPRKQVSGPERTIPITRAAKPAVTAAPKK
notes: αB-crystallin, human, SwissProt P02511, with E164A and E165A; ESI-MS mass 20043.0 Da; The measured mass fits the whole untagged protein with both changes; also called E164A/E165A mutant
binding result [2]: binds

B3: K175L αB-crystallin (natural protein, human, UniProt P02511 1-175, looked up)
chain: MDIAIHHPWIRRPFFPFHSPSRLFDQFFGEHLLESDLFPTSTSLSPFYLRPPSFLRAPSWFDTGLSEMRLEKDRFSVNLDVKHFSPEELKVKVLGDVIEVHGKHEERQDEHGFISREFHRKYRIPADVDPLTITSSLSSDGVLTVNGPRKQVSGPERTIPITREEKPAVTAAPKL
notes: αB-crystallin, human, SwissProt P02511, with K175L; ESI-MS mass 20143.9 Da; The measured mass fits the whole untagged protein with the change; also called K175L mutant
binding result [2]: binds

B4: Wild-type human αB-crystallin (natural protein, UniProt P02511 1-175, looked up)
chain: MDIAIHHPWIRRPFFPFHSPSRLFDQFFGEHLLESDLFPTSTSLSPFYLRPPSFLRAPSWFDTGLSEMRLEKDRFSVNLDVKHFSPEELKVKVLGDVIEVHGKHEERQDEHGFISREFHRKYRIPADVDPLTITSSLSSDGVLTVNGPRKQVSGPERTIPITREEKPAVTAAPKK
notes: αB-crystallin, human, SwissProt P02511; Polydisperse oligomer; also called αB-WT; wild-type αB-crystallin
binding result [2]: binds

B5: K174A/K175A αB-crystallin (natural protein, human, UniProt P02511 1-175, looked up)
chain: MDIAIHHPWIRRPFFPFHSPSRLFDQFFGEHLLESDLFPTSTSLSPFYLRPPSFLRAPSWFDTGLSEMRLEKDRFSVNLDVKHFSPEELKVKVLGDVIEVHGKHEERQDEHGFISREFHRKYRIPADVDPLTITSSLSSDGVLTVNGPRKQVSGPERTIPITREEKPAVTAAPAA
notes: αB-crystallin, human, SwissProt P02511, with K174A and K175A; ESI-MS mass 20044.8 Da; The measured mass fits the whole untagged protein with both lysines changed to alanine, although the printed primer reads GCG AAG; also called K174A/K175A mutant
binding result [2]: binds

— PMC2002509, “Site-Directed Mutations in the C-Terminal Extension of Human αB-Crystallin Affect Chaperone Function and Block Amyloid Fibril Formation” (PLoS ONE, 2007)
